Literature values in patent publication US20110118324A1, “METHOD AND COMPOSITION FOR TREATING MULTIPLE SCLEROSIS (VARIANTS)” (priority 2009, published 2011).

System: multiple sclerosis patients

B1: Betaferon: a recombinant human Beta-1b interferon (protein, UniProt P01574 22-187, looked up, variant C17S)
Interferon beta: MSYNLLGFLQRSSNFQSQKLLWQLNGRLEYCLKDRMNFDIPEEIKQLQQFQKEDAALTIYEMLQNIFAIFRQDSSSTGWNETIVENLLANVYHQINHLKTVLEEKLEKEDFTRGKLMSSLHLKRYYGRILHYLKAKEYSHCAWTIVRVEILRNFYFINRLTGYLRN
modifications: lacks N-terminal Met, non-glycosylated
notes: a recombinant human Beta-1b interferon
In the case of B1, the “reduction of the frequency of acute conditions occurring in the disease” value is listed as 30%, the “reduction of the severity of acute conditions” value is listed as 30% and the side effects is listed as “intensified depressive symptomatology”.
